The values that follow come from patent US20130202594A1, “ALK1 Antagonists and Their Uses in Treating Renal Cell Carcinoma” (priority 2012, published 2013).

“Also recorded” adds a separate entry of the source.

For one experiment, the target named is T1, BMP4 (Homo sapiens, UniProt P12644).
T1 sequence (P12644 293-408): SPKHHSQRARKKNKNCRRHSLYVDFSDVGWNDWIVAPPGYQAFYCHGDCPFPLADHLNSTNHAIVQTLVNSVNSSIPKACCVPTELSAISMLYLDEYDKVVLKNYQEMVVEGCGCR
The experiment can be described thus: Biacore binding to hALK1-Fc: BMP4. The method, then: (§1) ALK1 is a type 1 receptor for ligands of the TGFβ family. Multiple members of the TGFβ family were tested for binding to a human ALK1-Fc fusion protein, using a Biacore™ system.

The target in the next experiment is TGFβ (Homo sapiens, UniProt P01137). The experiment in a line: Biacore binding to hALK1-Fc: TGFβ. The method, then: as §1
Chain of TGFβ (P01137 279-390): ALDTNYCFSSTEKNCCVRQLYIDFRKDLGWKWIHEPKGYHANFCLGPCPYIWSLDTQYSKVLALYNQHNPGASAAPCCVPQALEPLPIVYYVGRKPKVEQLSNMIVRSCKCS
(In general: In SPR one partner is held on a chip, and binding of the other changes the refractive index at the surface.)

The subject of experiment [1] is BMP10 signaling (Smad1/5/8 reporter) in T98G cells. The experiment can be described thus: BMP10 signaling reporter assay in T98G cells transfected with ALK1. The conditions noted are these: 65 ng/ml, BMP10 1 ng/ml. Type of experiment: cell-based, human. The procedure: Effects of hALK-Fc on BMP10 signaling were determined in a cell-based assay, in which human glioblastoma T98G cells were transfected with three plasmids: 1) an expression construct encoding full-length ALK1; 2) a firefly-luciferase reporter construct (see Example 3) responsive to Smad1/5/8-mediated signaling, and 3) a Renilla-luciferase control construct. Treatment of transfected cells with recombinant human BMP10 (1 ng/ml) strongly stimulated firefly luciferase activity relative to Renilla luciferase activity (FIG. 16). Omission of the ALK1 expression construct reduced BMP10-stimulated activity by approximately two-thirds (data not shown), thus implicating ALK1 as a major mediator of the BMP10 signal. Treatment of fully transfected cells with hALK1-Fc (65 ng/ml) and BMP10 (1 ng/ml) reduced the transcriptional response compared to BMP10 alone by more than 80% (FIG. 16).
Background: A reporter such as luciferase makes a cellular process visible.

The subject of experiment [2] is BMP-9 mediated Smad1/5/8 signaling in HMVEC cells. The experiment in a line: SBE4-luc luciferase reporter of BMP-9 mediated Smad1/5/8 signaling in HMVEC cells. Format: cell-based, human. The conditions noted are these: 10 μg/ml, rhBMP-9 50 ng/ml. The method, then: Using a luciferase reporter construct under the control of four sequential consensus SBE sites (SBE4-luc), which are responsive to Smad1/5/8-mediated signaling, we measured BMP-9 mediated activity in the presence and absence of hALK1-Fc drug or neutralizing ALK1 specific monoclonal antibody in HMVEC cells. HMVEC cells were stimulated with rhBMP-9 (50 ng/ml), which induced Smad1/5/8-mediated transcriptional activation, evidenced here by the increase in SBE4-luc modulated transcriptional upregulation.

Take “hALK1-Fc: extracellular domain of human ALK1 (amino acids 22-120) fused to a human IgG1 Fc with a minimal linker (SEQ ID NO:3/14)”: the entries for the “binding to hALK1-Fc” value with BMP4 and with TGFβ were “failed to show substantial binding; also recorded: only limited binding” and “failed to show substantial binding”, respectively. For the same substance, the “reduction of transcriptional response compared to BMP10 alone” value in experiment [1] was “more than 80%”. Moreover, the “diminished transcriptional response (SBE4-luc)” value in experiment [2] is reported as ~60%.
